Reference: patent US20250277030A1, “ANTI-NAPI2B ANTIBODIES AND METHODS OF USE” (Zymeworks BC Inc., priority 2022, published 2025)

How the values were obtained:
[1] = Stability (fragmentation) in mouse plasma at 37° C. by LC-MS; type: in vitro ADME; details: for apparent % desired proteoforms: Mouse Plasma 37° C., 0.5 mg/ml
Description: Samples were removed after 0, 7 and 14 days and stored at −80° C. until characterization. For characterization, samples were thawed at room temperature and 50 μg were incubated with 5 μg of recombinant EndoS endoglycosidase for one hour at room temperature. An immunoprecipitation slurry was generated by a 45 min incubation of 95 μL/sample of magnetic Sepharose streptavidin-coated beads with 15 μg/sample of biotinylated goat anti-Human IgG Fc capture antibody, followed by 4 washes with PBS pH 7.4 with the aid of a DynaMag™-2 magnet (Invitrogen™).
After deglycosylation, plasma-incubated samples were incubated with 95 μL of the immunoprecipitation slurry for 1.5 hrs at room temperature. Then, the slurry underwent 6 washes with PBS pH 7.4 and 2 washes with LC-MS-grade water with the aid of a DynaMag™-2 magnet (Invitrogen™). A final wash with PBS pH 7.4 was performed before elution. Protein was eluted by incubating beads with 35 μL of LC-MS grade water with 20% acetonitrile and 0.1% formic acid for one hour at room temperature. PBS samples were not immunoprecipitated.
5 μL of the eluted sample were transferred to glass inserts in LC-MS vials. For LC-MS analysis, 1 μL of sample were injected into a Waters™ BioSuite Phenyl Column, 1000 Å, 10 μm, 4.6 mm×75 mm using a Waters™ ACQUITY™ UPLC I-Class HPLC system coupled to a Waters™ Synapt™ G2-Si HDMS with a column temperature of 70 C and a flow rate of 0.3 mL/min. Mobile phases consisted of A: LC-MS grade water with 0.1% v/v formic acid, 0.025 v/v trifluoroacetic acid and 10% v/v isopropyl alcohol in, and B: acetonitrile with 0.1% v/v formic acid and 10% v/v isopropyl alcohol. The column was pre-equilibrated in 10% mobile phase B before injection. Then, a 20 min 10 to 27% mobile phase B gradient was applied, followed by a 2 min 27 to 90% mobile phase B gradient and a column wash of 2 min at 99% mobile phase B.
The column was re-equilibrated to 10% mobile phase B for 2 minutes between runs. ESI was performed in positive mode with 3 kV of capillary voltage, 120 C source temperature, 100 V sampling cone voltage, source offset of 80 V, source gas flow of 0 ml/min, desolvation temperature 500 C, cone gas flow 0 μL/Hr, desolvation gas flow […], nebuliser gas flow 6.5 bar. Data format was continuum with analyser set in sensitivity mode, with a m/z range from 500 to 7000.
Peak integration, MS deconvolution and mass assignments were performed in Protein Metrics Byos® v4.0 using a deconvolution window of 60000-160000 Da with an m/z range of 1000-4000. For all time points, the highest intensity deconvoluted mass was assigned as the reference mass of v29456. […]

[2] = test system: KLH; assay: NS-ELISA non-specific binding, KLH; details: mAb at 100 nM
Description: The isoelectric point was measured by capillary isoelectric focusing (cIEF), the propensity for self-aggregation was measured by Affinity-capture self-interaction nanoparticle spectroscopy (AC-SINS) and non-specific binding was measured by NS-ELISA, as described below.
NS-ELISA was used to measure the propensity of the antibodies to bind to a range of biomolecules to emulate the undesirable non-specific interactions to biological matrices in vivo as described below.
NS-ELISA was carried out in Corning®96-well EIA/RIA Easy Wash™ Clear Flat Bottom Polystyrene High Bind Microplate coated overnight at 4° C. with 50 μL of Heparin (Sigma, H3149) diluted with 50 mM sodium carbonate pH 9.6 to a final concentration of 250 μg/mL. The plate was incubated for 2 days at room temperature, wells that were coated with heparin were not covered to allow air dry. […] Reactions were stopped after approximately 10 minutes by adding 100 μL of 1 M HCl to each well, and absorbance was read at 450 nm. Binding scores were calculated as the ratio of the ELISA signal of the antibody (antibody-treated) to the signal of a well containing buffer instead of the primary antibody (untreated). The cutoffs considered for each binding molecule (ssDNA, KLH, insulin, dsDNA and heparin) were internally calculated, based on the average of Zymeworks Inc. produced antibodies and antibodies benchmarks published in the literature.

B1: v29456: humanized anti-NaPi2b IgG1/kappa antibody H1L2; VH SEQ ID NO:24, VL SEQ ID NO:29 (antibody, V domains shown)
VH: QVQLVQSGAEVKKPGASVKVSCKASGFTFTSYNVHWVRQAPGQGLEWMGAISPGNGDLSYAQKFQGRVTMTRDTSTSTVYMELSSLRSEDTAVYYCARGRTGMGAVDYWGQGTLVTVSS
VL: DVQMTQSPSSLSASVGDRVTITCRASQDVYSYLNWYQQKPGKAVKLLIYYTSRLQSGVPSRFSGSGSGTDYTLTISSLQPEDFATYYCQQYNIFPWTFGQGTKLEIK
modifications: v29452, v29456, v29460 VH (H1); v29453, v29454, v29455, v29456 VL (L2)
fragmentation in mouse plasma, in words ([1]; 37° C., 7 and 14 days): no evidence of fragmentation
apparent % desired proteoforms ([1]; 0 days): 99.9%
apparent % desired proteoforms ([1]; 7 days): 100.0%
apparent % desired proteoforms ([1]; 14 days): 98.4%
NS-ELISA binding score (ratio of signal between antibody-treated and untreated), KLH [2]: 1.37
